In publication PMC4027205, “TstI, a Type II restriction–modification protein with DNA recognition, cleavage and methylation functions in a single polypeptide”:
Each block holds one molecule with its values, some of them ahead of it.

Experiments:
[1] = target: TstI RM protein (His-tagged form) (Thermus scotoductus RFL1); test: AUC; sedimentation equilibrium; TstI 0.1-0.3 mg/ml in 20 mM Tris-HCl pH 8.4, 100 mM KCl, 10 mM MgCl2, 20°C; 5000, 6000 and 7500 rpm; global fit to a single ideal species
[2] = target: T1, TstI restriction-modification protein (His-tagged) (Thermus scotoductus RFL1 (printed as T. scotoductus RFL1)) (UniProt A6H2J1); test: cleavage kinetics: kobs vs enzyme concentration, hyperbolic fit (no direct binding read-out); conditions: EMSA conditions not given (data not shown); cleavage in buffer R (composition not in material), 37 C
T1 sequence: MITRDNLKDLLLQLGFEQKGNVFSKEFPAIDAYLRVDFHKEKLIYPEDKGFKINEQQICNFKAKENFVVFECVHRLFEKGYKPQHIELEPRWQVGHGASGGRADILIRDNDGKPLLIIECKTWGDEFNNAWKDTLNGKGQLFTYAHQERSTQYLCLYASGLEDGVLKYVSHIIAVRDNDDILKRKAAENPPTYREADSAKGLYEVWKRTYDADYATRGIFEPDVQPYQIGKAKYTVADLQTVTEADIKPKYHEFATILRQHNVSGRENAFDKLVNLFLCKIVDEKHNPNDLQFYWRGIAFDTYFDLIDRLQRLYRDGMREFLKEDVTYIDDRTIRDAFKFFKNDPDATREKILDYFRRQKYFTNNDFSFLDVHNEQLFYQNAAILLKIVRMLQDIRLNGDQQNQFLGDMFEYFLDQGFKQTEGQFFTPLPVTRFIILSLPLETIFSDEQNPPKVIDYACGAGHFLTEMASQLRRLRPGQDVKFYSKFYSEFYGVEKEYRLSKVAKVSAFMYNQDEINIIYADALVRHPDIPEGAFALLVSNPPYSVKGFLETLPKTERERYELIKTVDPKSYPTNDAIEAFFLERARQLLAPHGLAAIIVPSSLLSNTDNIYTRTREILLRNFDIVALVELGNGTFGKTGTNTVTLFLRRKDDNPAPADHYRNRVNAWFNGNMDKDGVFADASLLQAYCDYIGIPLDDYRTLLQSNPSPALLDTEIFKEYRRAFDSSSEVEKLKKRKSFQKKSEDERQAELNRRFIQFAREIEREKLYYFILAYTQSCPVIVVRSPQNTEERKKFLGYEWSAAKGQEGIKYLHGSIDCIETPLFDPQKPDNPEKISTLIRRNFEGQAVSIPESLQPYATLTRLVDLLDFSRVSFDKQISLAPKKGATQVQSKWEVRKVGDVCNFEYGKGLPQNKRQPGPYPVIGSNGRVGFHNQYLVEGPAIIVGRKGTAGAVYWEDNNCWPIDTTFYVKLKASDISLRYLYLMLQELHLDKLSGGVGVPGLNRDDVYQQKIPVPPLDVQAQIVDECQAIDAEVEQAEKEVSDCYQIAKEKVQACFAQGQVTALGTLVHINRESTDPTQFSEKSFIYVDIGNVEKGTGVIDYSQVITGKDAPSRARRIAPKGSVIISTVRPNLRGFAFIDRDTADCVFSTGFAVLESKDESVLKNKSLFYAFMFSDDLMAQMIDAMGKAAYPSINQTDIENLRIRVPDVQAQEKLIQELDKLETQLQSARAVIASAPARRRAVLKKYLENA

[3] = target: T2, TstI restriction-modification protein (His-tagged) (Thermus scotoductus RFL1 (printed as T. …, UniProt A6H2J1 1-1251)); test: EMSA; data not shown; EMSA conditions not given (data not shown); cleavage in buffer R (composition not in material), 37 C; conditions: protein: recombinant; tags: N-terminal His tag (pET15b, 20 extra aa); chain copies: 4
T2 sequence: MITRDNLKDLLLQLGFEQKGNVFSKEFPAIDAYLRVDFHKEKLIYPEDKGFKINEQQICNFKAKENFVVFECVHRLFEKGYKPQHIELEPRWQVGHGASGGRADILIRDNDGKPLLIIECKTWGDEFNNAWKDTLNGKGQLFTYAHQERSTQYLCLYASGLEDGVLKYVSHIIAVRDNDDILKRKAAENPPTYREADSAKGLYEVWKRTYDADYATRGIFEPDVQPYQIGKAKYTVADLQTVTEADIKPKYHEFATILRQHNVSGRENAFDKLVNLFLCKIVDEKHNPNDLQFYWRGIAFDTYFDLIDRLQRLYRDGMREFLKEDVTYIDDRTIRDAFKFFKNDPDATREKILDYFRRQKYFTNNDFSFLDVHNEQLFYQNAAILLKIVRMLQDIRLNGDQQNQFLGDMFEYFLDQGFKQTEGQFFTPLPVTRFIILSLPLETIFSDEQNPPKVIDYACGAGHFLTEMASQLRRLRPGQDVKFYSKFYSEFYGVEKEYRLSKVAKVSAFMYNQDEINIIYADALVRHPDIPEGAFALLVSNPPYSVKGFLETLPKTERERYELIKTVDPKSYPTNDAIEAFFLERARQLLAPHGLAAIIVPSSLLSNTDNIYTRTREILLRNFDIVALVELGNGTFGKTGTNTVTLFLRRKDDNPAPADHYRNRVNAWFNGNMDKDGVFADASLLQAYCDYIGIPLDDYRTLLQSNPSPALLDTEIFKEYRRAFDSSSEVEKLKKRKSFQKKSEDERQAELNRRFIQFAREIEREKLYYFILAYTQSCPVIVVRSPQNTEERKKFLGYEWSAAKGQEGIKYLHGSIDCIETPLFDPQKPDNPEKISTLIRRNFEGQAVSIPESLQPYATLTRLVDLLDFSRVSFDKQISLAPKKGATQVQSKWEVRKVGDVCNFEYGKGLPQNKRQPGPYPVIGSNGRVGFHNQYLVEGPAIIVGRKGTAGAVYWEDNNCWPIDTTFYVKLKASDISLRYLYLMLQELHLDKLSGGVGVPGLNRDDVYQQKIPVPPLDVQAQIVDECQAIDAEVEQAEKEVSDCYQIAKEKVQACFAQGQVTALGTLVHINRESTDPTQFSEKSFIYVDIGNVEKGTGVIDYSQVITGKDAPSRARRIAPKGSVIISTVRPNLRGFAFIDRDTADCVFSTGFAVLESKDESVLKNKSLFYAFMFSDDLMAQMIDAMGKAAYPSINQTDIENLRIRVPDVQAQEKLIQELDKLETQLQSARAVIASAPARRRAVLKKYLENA

stoichiometry N [1]: 4
Molecule: TstI RM protein (His-tagged form) (enzyme)

Molecule: pTST1
K half [2]: 19 nM

B1: 50NS (dsDNA)
DNA 1: CTGTCTGAGATACACTCGTCTCGAACAAACCATCCAGTCTCTGACTATGT
DNA 2: ACATAGTCAGAGACTGGATGGTTTGTTCGAGACGAGTGTATCTCAGACAG
binding result [3]: binds
